Changes are numbered by the printed parent chain. Names and notes keep the numbering of the source.
B1: KCTD7 (Sf9, for the cryo-EM complex) (natural protein)
chain: MVVVTGREPDSRHSDGAMSSSEAEDDFLEPATPTATQAGHGLPLLPQEFPEVVPLNIGGAHFTTRLSTLRRYEDTMLAAMFSGRHYIPTDSEGRYFIDRDGTHFGDVLNFLRSGDLPPREHVRAVHKEAQYYAIGPLLEQLENMQPLKGEKVRQAFLGLMPYYKDHLERIVEIARLRAVQRKARFAKLKVCVFKEEMPITPYECPLLNSLRFERSESDGQLFEHHCEVDVSFGPWEAVADVYDLLHCLVTDLSAQGLTVDHQCIGVCDKHLVNHYYCKRPIYEFKITWW
B2: FLAG-tagged KCTD7 WT (E. coli, for pull-down) (natural protein)
chain: B1 chain
B3: FLAG-tagged KCTD7 R65A (natural protein)
chain: B1 chain with R65A
B4: FLAG-tagged KCTD7 S67A (natural protein)
chain: B1 chain with S67A
B5: FLAG-tagged KCTD5 full-length (FL) (natural protein)
chain: MAENHCELLPPAPSGLGAGLGGGLCRRCSAGMGALAQRPGGVSKWVRLNVGGTYFLTTRQTLCRDPKSFLYRLCQADPDLDSDKDETGAYLIDRDPTYFGPVLNYLRHGKLVINKDLAEEGVLEEAEFYNITSLIKLVKDKIRERDSRISQMPVKHVYRVLQCQEEELTQMVSTMSDGWKFEQLVSIGSSYNYGNEDQAEFLCVVSKELHNTPYGTTSEPSEKAKILQERGSRM
B6: FLAG-tagged KCTD5 R159A (natural protein)
chain: B5 chain with R159A
B7: FLAG-tagged KCTD5 E167A (natural protein)
chain: B5 chain with E167A
B8: FLAG-tagged KCTD5 R72A (natural protein)
chain: B5 chain with R72A
B9: FLAG-tagged KCTD5 D93A (natural protein)
chain: B5 chain with D93A
B10: FLAG-tagged KCTD5 W179A (natural protein)
chain: B5 chain with W179A

Molecular target: the molecule itself
Assay: cryo-EM structure

Binder	stoichiometry N
B1	5

The binders below were run against T1, Cul3NΔ22 (23-388, I342R, and L346D) (UniProt Q13618 23-388, I342R | L346D) (assay: cryo-EM structure).
T1 sequence (Q13618 23-388 I342R/L346D): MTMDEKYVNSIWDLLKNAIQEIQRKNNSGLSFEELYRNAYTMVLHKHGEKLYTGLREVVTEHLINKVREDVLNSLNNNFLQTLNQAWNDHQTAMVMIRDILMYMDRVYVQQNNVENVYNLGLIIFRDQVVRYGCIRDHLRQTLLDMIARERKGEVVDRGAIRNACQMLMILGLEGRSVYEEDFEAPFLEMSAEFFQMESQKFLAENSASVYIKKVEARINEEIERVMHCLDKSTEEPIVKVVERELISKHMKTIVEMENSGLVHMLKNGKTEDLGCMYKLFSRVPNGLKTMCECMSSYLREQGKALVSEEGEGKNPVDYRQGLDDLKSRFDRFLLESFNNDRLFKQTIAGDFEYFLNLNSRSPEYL

Binder	binding result
B1	binds

What follows are binders tested against T1, Cul3NΔ22 (23-388, I342R, and L346D) (assay: pull-down).

Binder	binding result
B2	binds
B3	binds
B4	binds
B5	binds
B6	binds
B7	binds
B8	binds
B9	binds
B10	binds

From PMC10348674 (Science Advances, 2023)
